The target of one assay is T1, human CXCR5 (human, UniProt P32302 1-372).
T1 construct: whole, on cells; CHO cells
T1 sequence (looked up): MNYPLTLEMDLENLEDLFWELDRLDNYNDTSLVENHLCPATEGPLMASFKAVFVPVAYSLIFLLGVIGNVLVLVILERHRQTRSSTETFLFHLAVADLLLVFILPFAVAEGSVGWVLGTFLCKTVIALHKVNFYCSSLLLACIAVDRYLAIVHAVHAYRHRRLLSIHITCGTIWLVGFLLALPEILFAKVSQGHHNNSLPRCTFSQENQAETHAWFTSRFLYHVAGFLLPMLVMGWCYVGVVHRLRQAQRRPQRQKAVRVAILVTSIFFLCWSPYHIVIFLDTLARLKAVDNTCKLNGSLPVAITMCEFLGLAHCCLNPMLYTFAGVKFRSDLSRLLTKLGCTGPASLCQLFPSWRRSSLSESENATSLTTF
Briefly: FACS, CHO-human CXCR5 cells. (In general: Flow cytometry measures light scatter and fluorescence of single cells or particles in a stream.)

The target of assay [1] is T2, human chemokine receptor CCR7 (human, UniProt P32248 25-378).
T2 construct: On CHO, BHK, R1610 and Chem-1 transfectants and, natively, on human PBMC and the leukemia lines JVM-13 and CLL-AAT; also called human CCR7; hCCR7
T2 sequence: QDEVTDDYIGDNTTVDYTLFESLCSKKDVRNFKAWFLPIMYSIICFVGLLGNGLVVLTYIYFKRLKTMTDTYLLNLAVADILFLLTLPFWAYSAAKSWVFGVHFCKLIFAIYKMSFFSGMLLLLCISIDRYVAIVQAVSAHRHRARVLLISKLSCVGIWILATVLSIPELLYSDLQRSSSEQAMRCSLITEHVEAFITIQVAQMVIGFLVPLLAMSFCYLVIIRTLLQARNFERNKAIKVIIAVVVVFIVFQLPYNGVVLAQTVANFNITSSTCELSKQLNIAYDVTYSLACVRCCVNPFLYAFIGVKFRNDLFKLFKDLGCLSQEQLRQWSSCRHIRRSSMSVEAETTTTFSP
Briefly: flow cytometry titration, BHK cells expressing human CCR7. Here is the method: (§1) The affinity of IgG1 antibodies to human CCR7 was evaluated by measuring mean fluorescence value (MFI) of cells expressing CCR7 in the presence of varying concentration of antibody in question, upon staining of bound to the cells antibodies with a commercial anti-human antibody-PE conjugate. The data of such experiments are depicted in FIGS. 9, 10, and 11. In these experiments binding of some antibodies to parental cells or cells expressing mouse CCR7 was also quantitatively characterized by obtaining EC₅₀ value (a concentration of IgG1 at which half-maximum MFI is achieved) for each curve using the SoftMaxPro5 program.

The target of assay [2] is T2, human chemokine receptor CCR7. Briefly: flow cytometry titration, CHO-human CCR7 cells. Here is the method: as §1
Assay [3] addresses T3, mouse CCR7 (mouse, UniProt P47774 25-378).
T3 construct: whole, on cells; On CHO-mouse CCR7 cells and on mouse splenocytes; also called mouse CCR7 ortholog
T3 sequence (looked up): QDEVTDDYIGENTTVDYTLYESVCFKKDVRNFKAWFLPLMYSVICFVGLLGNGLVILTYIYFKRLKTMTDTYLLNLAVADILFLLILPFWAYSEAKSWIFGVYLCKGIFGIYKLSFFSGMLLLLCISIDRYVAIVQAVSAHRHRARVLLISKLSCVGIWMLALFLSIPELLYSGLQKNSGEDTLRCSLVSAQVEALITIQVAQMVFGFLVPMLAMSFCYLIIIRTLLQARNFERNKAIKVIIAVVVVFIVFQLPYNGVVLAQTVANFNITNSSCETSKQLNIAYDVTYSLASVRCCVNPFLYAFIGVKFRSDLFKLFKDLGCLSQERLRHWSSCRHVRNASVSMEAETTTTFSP
As to the kind of experiment: flow cytometry titration, CHO-mouse CCR7 cells. Here is the method:
as §1

Assay [4] addresses T2, human chemokine receptor CCR7. Briefly: flow cytometry titration, human CCR7-expressing CHO cells.
Assay [5] has the same target. Briefly: cell-based or functional assay.
Assay [6] deals with T3, mouse CCR7. Briefly: flow cytometry, mouse CCR7 cells (summary table).
Assay [7] has as its target T2, human chemokine receptor CCR7. Briefly: flow cytometry titration, cells expressing CCR7; before storage (unit from the axis, nM).
Assay [8] shares this target. Briefly: flow cytometry titration, CCR7-expressing CHO cells; antibody kept 12 h at 40 C.
For assay [9] the target is unchanged. As to the kind of experiment: flow cytometry titration, CCR7-expressing CHO cells; antibody not heat-treated.
The target is the same in assay [10]. Briefly: flow cytometry, human CCR7 cells (summary table).
Assay [11] shares this target. As to the kind of experiment: flow cytometry titration, cells expressing CCR7; after 4.5 months at 4 C (unit from the axis, nM).
Assay [12] has as its target T3, mouse CCR7. Briefly: flow cytometry titration, CHO cells expressing mouse CCR7.

Data on two molecules can be found in patent publication US20150344580A1 (MSM PROTEIN TECHNOLOGIES, published 2015).

B1: MSM-R710 (fully human anti-human CCR7 antibody, IgG1) (antibody, V domains shown)
VH: EVQLLESGGGLVQPGGSLRLSCAASGFTFSNYTMHWVRQAPGKGLEWVSGIGPRSGRTYYADSVKGRFTISRDNSKNTLYLQMNSLRAEDTAVYYCARSYAYQYRGFDYWGQGTLVTVSS
VL: EIVLTQSPGTLSLSPGERATLSCRASQSVSSSYLAWYQQKPGQAPRLLIYGASSRATGIPDRFSGSGSGTDFTLTISRLEPEDFAVYYCQSSVTFGQGTKVEIKR
notes: IgG1 format
In general, EC50 refers to the concentration at which the effect is half-maximal. A higher EC50 goes with lower potency in that assay. On to B1, for which the binding result with human CXCR5 is “no binding (tested: 200 nM MAB mixed 1:1 with cells)”. This molecule also showed a concentration for a half-maximal effect (EC50) in assay [1] of 3.8 nM.

B2: MSM-R735 (fully human anti-human CCR7 antibody, IgG1) (antibody)
heavy: not shown
light: EIVLTQSPGTLSLSPGERATLSCRASQSVSSSYLAWYQQKPGQAPRLLIYGASSRATGIPDRFSGSGSGTDFTLTISRLEPEDFAVYYCQQGSPVTFGQGTKVEIKRTVAAPSVFIFPPSDEQLKSGTASVVCLLNNFYPREAKVQWKVDNALQSGNSQESVTEQDSKDSTYSLSSTLTLSKADYEKHKVYACEVTHQGLSSPVTKSFNRGEC
notes: IgG1 format; also called R735 Human IgG1
Consider B2, for which the EC50 is 0.7 nM in [2]; roughly 642 nM with mouse CCR7 [3]; 3.7 nM in assay [4]; 1 nM with mouse CCR7 [6]; 2.47 nM in assay [7]; 3.1 nM in [8]. The EC50 in assay [9] came to 3 nM; in [10], 4 nM; in assay [11] it was 2.06 nM; with mouse CCR7 [12], 2.4 nM. Further, in the assay with human CXCR5, the binding result is “no binding (tested: 200 nM MAB mixed 1:1 with cells)”. Besides, in [5], the “EC50 of killing of JVM-13 cells with Fab-ZAP” value came to 19 nM. For the same molecule, the “IC50 of decrease in cell viability with human Fab-ZAP, JVM-13 cells” value in assay [5] was roughly 1.2 nM. In assay [5], the “IC50 of inhibition of Ca-flux induced by 15 nM CCL19, Chem-1 CCR7 human cells” value worked out at 67 nM.
